This note sets out measurements from paper PMC10251306.

Substrate in the data set: O=P(O)(O)OC[C@H]1O[C@H](OP(=O)(O)O)[C@H](O)[C@@H](O)[C@@H]1O
The data set can be described thus: phosphatase activity, BioMol Green phosphate assay. It is filed as biochemical, Homo sapiens. As to conditions: without IMP, 100 mM Hepes pH 7.2, 2 mM MgCl2, 2 mM β-mercaptoethanol.

B1: PMM1 (α-PMM1) (Homo sapiens) (protein)
chain: MAVTAQAARRKERVLCLFDVDGTLTPARQKIDPEVAAFLQKLRSRVQIGVVGGSDYCKIAEQLGDGDEVIEKFDYVFAENGTVQYKHGRLLSKQTIQNHLGEELLQDLINFCLSYMALLRLPKKRGTFIEFRNGMLNISPIGRSCTLEERIEFSELDKKEKIREKFVEALKTEFAGKGLRFSRGGMISFDVFPEGWDKRYCLDSLDQDSFDTIHFFGNETSPGGNDFEIFADPRTVGHSVVSPQDTVQRCREIFFPETAHEA
As to B1, the Km amounted to 18 ± 3.4 µM, the turnover number (kcat) was 0.018 ± 0.0012 s⁻¹ and the kcat/Km came to 1000 M⁻¹ s⁻¹.

A word on the Km: it is the concentration of substrate that gives half-maximal velocity. By kcat is commonly meant the number of substrate molecules converted per active site and unit of time at saturation. The term kcat/Km denotes the turnover number divided by the Michaelis constant.
